Experimental data reported in publication PMC6480920, “A Combined ELONA-(RT)qPCR Approach for Characterizing DNA and RNA Aptamers Selected against PCBP-2”.

B1: 05RS10-30 (ssRNA)
RNA: GGGGCGGAUCCAGACUGGUGUUUCCGCAAAGAGUGGUCUUUGUUAAUGUCAGGUUUCUUCGGCCCUAAAGACAAGCUUC
B2: 05DS10-18 (ssDNA)
DNA: GCGGATCCAGACTGGTGTCCTATCTATAATTTTGCAGTCCACGTTTCTCTTGTGTGTGCCCTAAAGACAAGCTTC
B3: 05DS10-21 (ssDNA)
DNA: GCGGATCCAGACTGGTGTGGAGGTTAGCCGAAACACGTATACGCGTATTTATCCTCGGGCCCTAAAGACAAGCTTC
B4: 05DS10-02 (= 05DS10-03) (ssDNA)
DNA: GCGGATCCAGACTGGTGTACTGGGCTAGTTGCCTCTGCAGATTAGATGATGACAGTGGCCCTAAAGACAAGCTTC
B5: 05DS10-05 (ssDNA)
DNA: GCGGATCCAGACTGGTGTACCTGTTAGCAAGAGTTTATTATGTAAAGATATCCGTTGGGCCCTAAAGACAAGCTTC
B6: 05DS10-22 (ssDNA)
DNA: GCGGATCCAGACTGGTGTCAATGGTACTCTTCATTGTAGTCGCTTTGTTTATTAGCCGGCCCTAAAGACAAGCTTC
B7: 05DS10-01 (ssDNA)
DNA: GCGGATCCAGACTGGTGTGCACAGCACATGCATTACTGCGGTAATCCGTGTCCTTTGTGCCCTAAAGACAAGCTTC
B8: 05DS10-12 (ssDNA)
DNA: GCGGATCCAGACTGGTGTGCAGGTATGCCGGATCATGTCGTGAAAGTATCCATTTCTCGCCCTAAAGACAAGCTTC
B9: 05RS10-32 (ssRNA)
RNA: GGGGCGGAUCCAGACUGGUGUCUUCCUGCUUGUGUUAUUUUCUAUUGUCGUGCGUGUUCGGGCCCUAAAGACAAGCUUC
B10: 05RS10-32-32P (ssRNA)
RNA: B9 RNA
B11: 05RS10-19 (ssRNA)
RNA: GGGGCGGAUCCAGACUGGUGUAAUCGAUCUUGCAUGCUAUUCGUCAAUCAACUCUUGCCGGCCCUAAAGACAAGCUUC
B12: 05RS10-11 (ssRNA)
RNA: GGGGCGGAUCCAGACUGGUGUGAUCAUAUUAAUAAGACGCUUCCAGGUACGUCGCUGUUGGGCCCUAAAGACAAGCUUC
B13: 05RS10-04 (ssRNA)
RNA: GGGGCGGAUCCAGACUGGUGUCAUUUAGCAAAAACACUUGUAUAAUUCAAGUCGAUGUUGGGCCCUAAAGACAAGCUUC
B14: 05RS10-09 (ssRNA)
RNA: GGGGCGGAUCCAGACUGGUGUACACGGUGUUUAGUAGUUUAAUGAAUCUUUUAGUUCUUGGGCCCUAAAGACAAGCUUC
B15: 05RS10-34 (ssRNA)
RNA: GGGGCGGAUCCAGACUGGUGUGAACACAGACGAGAACGUUGCAUAAAACCGCUUUUUUGGGCCCUAAAGACAAGCUUC
B16: 05RS10-18 (ssRNA)
RNA: GGGGCGGAUCCAGACUGGUGUUUAAUUAUGUAAGUAAAUUGUUUUUUGACUCUCGCAUUGGGCCCUAAAGACAAGCUUC
B17: 05DS10-26 (ssDNA)
DNA: GCGGATCCAGACTGGTGTGGGAATGTTGTTTATGTATTTGTTCTGAGCTCTACCTTTGCCCTAAAGACAAGCTTC

Key:
[1] = molecular target: T1, PCBP-2 (poly(C)-binding protein 2) (UniProt Q15366 1-365); experiment: ELONA-RTqPCR; Kd in range 24.1-276.5 nM, value in figure; ELONA: 100 mM HEPES pH 7.4, 100 mM NaCl, 6 mM MgCl2, 37 °C, 60 min, PCBP-2 (10 pmol) immobilized on Cu2+ plates; EMSA: 40 mM Tris-HCl pH 7.5, 250 mM NaCl, 0.1%; details: protein: recombinant; tags: N-terminal 6xHis
[2] = molecular target: T1, PCBP-2 (poly(C)-binding protein 2); experiment: ELONA-qPCR; Kd in range 8.4-89.9 nM, value in figure; ELONA: 100 mM HEPES pH 7.4, 100 mM NaCl, 6 mM MgCl2, 37 °C, 60 min, PCBP-2 (10 pmol) immobilized on Cu2+ plates; EMSA: 40 mM Tris-HCl pH 7.5, 250 mM NaCl, 0.1%; details: protein: recombinant; tags: N-terminal 6xHis
[3] = molecular target: T1, PCBP-2 (poly(C)-binding protein 2); experiment: ELONA-qPCR; 6 mM Mg2+; ELONA: 100 mM HEPES pH 7.4, 100 mM NaCl, 6 mM MgCl2, 37 °C, 60 min, PCBP-2 (10 pmol) immobilized on Cu2+ plates; EMSA: 40 mM Tris-HCl pH 7.5, 250 mM NaCl, 0.1%; details: protein: recombinant; tags: N-terminal 6xHis
[4] = molecular target: T1, PCBP-2 (poly(C)-binding protein 2); experiment: ELONA-qPCR; Kd in range 8.4-89.9 nM, value in figure; highest DNA Bmax; ELONA: 100 mM HEPES pH 7.4, 100 mM NaCl, 6 mM MgCl2, 37 °C, 60 min, PCBP-2 (10 pmol) immobilized on Cu2+ plates; EMSA: 40 mM Tris-HCl pH 7.5, 250 mM NaCl, 0.1%; details: protein: recombinant; tags: N-terminal 6xHis
[5] = molecular target: T1, PCBP-2 (poly(C)-binding protein 2); experiment: ELONA-RTqPCR; Kd in range 24.1-276.5 nM, value in figure; highest RNA Bmax; ELONA: 100 mM HEPES pH 7.4, 100 mM NaCl, 6 mM MgCl2, 37 °C, 60 min, PCBP-2 (10 pmol) immobilized on Cu2+ plates; EMSA: 40 mM Tris-HCl pH 7.5, 250 mM NaCl, 0.1%; details: protein: recombinant; tags: N-terminal 6xHis
[6] = molecular target: T1, PCBP-2 (poly(C)-binding protein 2); experiment: EMSA; 0.1-27.1 nM protein; two retarded complexes; ELONA: 100 mM HEPES pH 7.4, 100 mM NaCl, 6 mM MgCl2, 37 °C, 60 min, PCBP-2 (10 pmol) immobilized on Cu2+ plates; EMSA: 40 mM Tris-HCl pH 7.5, 250 mM NaCl, 0.1%; details: protein: recombinant; tags: N-terminal 6xHis; label: 32P-CTP uniform
[7] = molecular target: T1, PCBP-2 (poly(C)-binding protein 2); experiment: ELONA-RTqPCR; 6 mM Mg2+; ELONA: 100 mM HEPES pH 7.4, 100 mM NaCl, 6 mM MgCl2, 37 °C, 60 min, PCBP-2 (10 pmol) immobilized on Cu2+ plates; EMSA: 40 mM Tris-HCl pH 7.5, 250 mM NaCl, 0.1%; details: protein: recombinant; tags: N-terminal 6xHis

T1 sequence (Q15366 whole entry): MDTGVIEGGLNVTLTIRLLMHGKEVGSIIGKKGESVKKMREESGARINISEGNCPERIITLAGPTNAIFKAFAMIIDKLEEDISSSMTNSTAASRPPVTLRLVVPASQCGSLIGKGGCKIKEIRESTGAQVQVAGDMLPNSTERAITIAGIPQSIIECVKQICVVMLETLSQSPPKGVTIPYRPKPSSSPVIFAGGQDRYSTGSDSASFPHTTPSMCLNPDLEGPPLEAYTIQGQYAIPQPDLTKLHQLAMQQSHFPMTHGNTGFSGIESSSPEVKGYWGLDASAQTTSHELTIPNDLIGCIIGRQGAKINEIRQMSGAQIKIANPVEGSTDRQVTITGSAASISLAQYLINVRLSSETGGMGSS

| Binder | binding result [1] | binding result [2] | other results |
| --- | --- | --- | --- |
| B1 | binds | – | – |
| B2 | – | binds | – |
| B3 | – | – | Kd [3]: 8.4 nM |
| B4 | – | binds | – |
| B5 | – | – | binding result [4]: binds |
| B6 | – | binds | – |
| B7 | – | binds | – |
| B8 | – | binds | – |
| B9 | – | – | binding result [5]: binds |
| B10 | – | – | binding result [6]: binds |
| B11 | binds | – | – |
| B12 | binds | – | – |
| B13 | binds | – | – |
| B14 | – | – | Kd [7]: 24.1 nM |
| B15 | binds | – | – |
| B16 | binds | – | – |
| B17 | – | binds | – |
